Results taken from paper doi:10.1101/2020.11.26.400622 (bioRxiv, 2020).

B1: circularly permuted human Taspase1 cp-Taspase1_(α41-233/β) (enzyme)
chain: TVGAVVVDHEGNVAAAVSSGGLALKHPGRVGQAALYGCGCWAENTGAHNPYSTAVSTSGCGEHLVRTILARECSHALQAEDAHQALLETMQNKFISSPFLASEDGVLGGVIVLRSCRCSAEPDSSQNKQTLLVEFLWSHTTESMCVGYMSAQDGKAKTHISRLPPGAVAGQSVAIEGGVCRLEGSGSGGFVLVHAGAGYHSESKAKEYKHVCKRACQKAIEKLQAGALATDAVTAALVELEDSPFTNAGMGSNLNLLGEIECDASIMDGKSLNFGAVGALSGIKNPVSVANRLLCEGQKGKLSAGRIPPCFLVGEGAYRWAVDHGIPSCPPNIMTTRFSLAAFKRNKRKLELAERVDTDFMQLKKRRQSSEKENDSGTLD
B2: circularly permuted human Taspase1 cp-Taspase1_(α41-183/β) (enzyme)
chain: TVGAVVVDHEGNVAAAVSSGGLALKHPGRVGQAALYGCGCWAENTGAHNPYSTAVSTSGCGEHLVRTILARECSHALQAEDAHQALLETMQNKFISSPFLASEDGVLGGVIVLRSCRCSAEPDSSQNKQTLLVEFLWSHTTESMCVGYMSAQDGKAKTHISRLPPGAVAGQSVAIEGGVCRLEGSGSGGFVLVHAGAGYHSESKAKEYKHVCKRACQKAIEKLQAGALATDAVTAALVELEDSPFTNAGMGSNLNLLGEIECDASIMDGKSLNFGAVGALSGIKNPVSVANRLLCEGQKGKLSAGRIPPCFLVGEGAYRWAVDHGIPSCP

Columns and labels:
dynamic light scattering [1] = biological target: the molecule itself; assay: dynamic light scattering
[2] = biological target: the molecule itself; assay: negative staining electron microscopy
dynamic light scattering [3] = biological target: the molecule itself; assay: dynamic light scattering; remark: listed apart in the source
crystal structure = biological target: the molecule itself; assay: crystal structure

Protein | stoichiometry N (dynamic light scattering [1]) | stoichiometry N [2] | stoichiometry N (dynamic light scattering [3]) | binding result (crystal structure)
B1 | 6 | 2 | 4 | –
B2 | – | – | – | binds
